Target: CD80-Ig (extracellular domain of CD80 fused with the constant region of mouse IgG1 heavy chain) (mouse)
Test: SPR, CD28-Ig (187 nM to 12 µM) over CD80-Ig captured by anti-mouse IgG1 Fc

koff: 0.563 s⁻¹
kon: 138000 M⁻¹ s⁻¹
Substance: CD28-Ig (Fc fusion)

Source: patent US7220822
